{"source": "patent US20100021987", "proteins": {"B1": {"name": "human SENP2 (hSENP2) SUMO protease catalytic domain (protein)", "chain": "MASLLELTEDMEKEISNALGHGPQDEILSSAFKLRITRGDIQTLKNYHWLNDEVINFYMNLLVERNKKQGYPALHVFSTFFYPKLKSGGYQAVKRWTKGVNLFEQEIILVPIHRKVHWSLVVIDLRKKCLKYLDSMGQKGHRICEILLQYLQDESKTKRNSDLNLLEWTHHSMKPHEIPQQLNGSDCGMFTCKYADYISRDKPITFTQHQMPLFRKKMVWEILHQQLLAAALEHHHHHH"}}, "key": {"[1]": {"target": "6xHis-hSUMO-3-X-eGFP, X = A"}, "[2]": {"target": "6xHis-hSUMO-3-X-eGFP, X = C"}, "[3]": {"target": "6xHis-hSUMO-3-X-eGFP, X = D"}, "[4]": {"target": "6xHis-hSUMO-3-X-eGFP, X = E"}, "[5]": {"target": "6xHis-hSUMO-3-X-eGFP, X = F"}, "[6]": {"target": "6xHis-hSUMO-3-X-eGFP, X = G"}, "[7]": {"target": "6xHis-hSUMO-3-X-eGFP, X = H"}, "[8]": {"target": "6xHis-hSUMO-3-X-eGFP, X = I"}, "[9]": {"target": "6xHis-hSUMO-3-X-eGFP, X = K"}, "[10]": {"target": "6xHis-hSUMO-3-X-eGFP, X = L"}, "[11]": {"target": "6xHis-hSUMO-3-X-eGFP, X = N"}, "[12]": {"target": "6xHis-hSUMO-3-X-eGFP, X = P"}, "[13]": {"target": "6xHis-hSUMO-3-X-eGFP, X = Q"}, "[14]": {"target": "6xHis-hSUMO-3-X-eGFP, X = R"}, "[15]": {"target": "6xHis-hSUMO-3-X-eGFP, X = S"}, "[16]": {"target": "6xHis-hSUMO-3-X-eGFP, X = T"}, "[17]": {"target": "6xHis-hSUMO-3-X-eGFP, X = V"}, "[18]": {"target": "6xHis-hSUMO-3-X-eGFP, X = W"}, "[19]": {"target": "6xHis-hSUMO-3-X-eGFP, X = Y"}}, "data": [{"protein": "B1", "values": [{"measurement": "activity level (grade)", "setting": "6xHis-AtSUMO1-eGFP", "value": "+"}, {"measurement": "cleavage, 2-fold enzyme dilution series, SDS-PAGE", "setting": "6xHis-AtSUMO1-eGFP", "value": "Both hSENP2 and yUlp1 cleaved the AtSUMO1 fusion similarly"}, {"measurement": "activity level (grade)", "setting": "6xHis-AtSUMO2-eGFP", "value": "+"}, {"measurement": "activity level (grade)", "setting": "6xHis-T-SUMO-eGFP", "value": "+"}, {"measurement": "activity level (grade)", "setting": "6xHis-hSUMO-1-eGFP", "value": "++"}, {"measurement": "cleavage, 2-fold enzyme dilution series, SDS-PAGE; fold against yUlp1", "setting": "6xHis-hSUMO-1-eGFP", "value": "hSENP2 was able to cleave hSUMO-1 and ySmt3 fusions somewhat more effectively (about 2-fold) than yUlp1"}, {"measurement": "cleavage, time course, SDS-PAGE", "setting": "6xHis-hSUMO-1-eGFP", "value": "both enzymes cleaving hSUMO-1-eGFP poorly"}, {"measurement": "Percent cleavage, enzyme:substrate 1:100", "setting": "[1]", "value": 99.6, "unit": "%"}, {"measurement": "Percent cleavage, enzyme:substrate 1:1000", "setting": "[1]", "value": 92.5, "unit": "%"}, {"measurement": "Percent cleavage, enzyme:substrate 1:100", "setting": "[2]", "value": 100, "unit": "%"}, {"measurement": "Percent cleavage, enzyme:substrate 1:1000", "setting": "[2]", "value": 98.5, "unit": "%"}, {"measurement": "Percent cleavage, enzyme:substrate 1:100", "setting": "[3]", "value": 99.5, "unit": "%"}, {"measurement": "Percent cleavage, enzyme:substrate 1:1000", "setting": "[3]", "value": 69.8, "unit": "%"}, {"measurement": "Percent cleavage, enzyme:substrate 1:100", "setting": "[4]", "value": 100, "unit": "%"}, {"measurement": "Percent cleavage, enzyme:substrate 1:1000", "setting": "[4]", "value": 92.2, "unit": "%"}, {"measurement": "Percent cleavage, enzyme:substrate 1:100", "setting": "[5]", "value": 100, "unit": "%"}, {"measurement": "Percent cleavage, enzyme:substrate 1:1000", "setting": "[5]", "value": 98.9, "unit": "%"}, {"measurement": "Percent cleavage, enzyme:substrate 1:100", "setting": "[6]", "value": 100, "unit": "%"}, {"measurement": "Percent cleavage, enzyme:substrate 1:1000", "setting": "[6]", "value": 98.9, "unit": "%"}, {"measurement": "Percent cleavage, enzyme:substrate 1:100", "setting": "[7]", "value": 100, "unit": "%"}, {"measurement": "Percent cleavage, enzyme:substrate 1:1000", "setting": "[7]", "value": 98.4, "unit": "%"}, {"measurement": "Percent cleavage, enzyme:substrate 1:100", "setting": "[8]", "value": 98.4, "unit": "%"}, {"measurement": "Percent cleavage, enzyme:substrate 1:1000", "setting": "[8]", "value": 56.2, "unit": "%"}, {"measurement": "Percent cleavage, enzyme:substrate 1:100", "setting": "[9]", "value": 100, "unit": "%"}, {"measurement": "Percent cleavage, enzyme:substrate 1:1000", "setting": "[9]", "value": 92.8, "unit": "%"}, {"measurement": "Percent cleavage, enzyme:substrate 1:100", "setting": "[10]", "value": 98.6, "unit": "%"}, {"measurement": "Percent cleavage, enzyme:substrate 1:1000", "setting": "[10]", "value": 75.2, "unit": "%"}, {"measurement": "Percent cleavage, enzyme:substrate 1:100", "setting": "[11]", "value": 96.2, "unit": "%"}, {"measurement": "Percent cleavage, enzyme:substrate 1:1000", "setting": "[11]", "value": 98.3, "unit": "%"}, {"measurement": "Percent cleavage, enzyme:substrate 1:100", "setting": "[12]", "value": 0, "unit": "%"}, {"measurement": "Percent cleavage, enzyme:substrate 1:1000", "setting": "[12]", "value": 0, "unit": "%"}, {"measurement": "Percent cleavage, enzyme:substrate 1:100", "setting": "[13]", "value": 95.9, "unit": "%"}, {"measurement": "Percent cleavage, enzyme:substrate 1:1000", "setting": "[13]", "value": 66.7, "unit": "%"}, {"measurement": "Percent cleavage, enzyme:substrate 1:100", "setting": "[14]", "value": 99.7, "unit": "%"}, {"measurement": "Percent cleavage, enzyme:substrate 1:1000", "setting": "[14]", "value": 98.7, "unit": "%"}, {"measurement": "Percent cleavage, enzyme:substrate 1:100", "setting": "[15]", "value": 99.6, "unit": "%"}, {"measurement": "Percent cleavage, enzyme:substrate 1:1000", "setting": "[15]", "value": 99.1, "unit": "%"}, {"measurement": "Percent cleavage, enzyme:substrate 1:100", "setting": "[16]", "value": 99, "unit": "%"}, {"measurement": "Percent cleavage, enzyme:substrate 1:1000", "setting": "[16]", "value": 82, "unit": "%"}, {"measurement": "Percent cleavage, enzyme:substrate 1:100", "setting": "[17]", "value": 100, "unit": "%"}, {"measurement": "Percent cleavage, enzyme:substrate 1:1000", "setting": "[17]", "value": 99.8, "unit": "%"}, {"measurement": "Percent cleavage, enzyme:substrate 1:100", "setting": "[18]", "value": 100, "unit": "%"}, {"measurement": "Percent cleavage, enzyme:substrate 1:1000", "setting": "[18]", "value": 99.4, "unit": "%"}, {"measurement": "Percent cleavage, enzyme:substrate 1:100", "setting": "[19]", "value": 100, "unit": "%"}, {"measurement": "Percent cleavage, enzyme:substrate 1:1000", "setting": "[19]", "value": 98.7, "unit": "%"}, {"measurement": "Kcat", "setting": "6xHis-hSUMO-3-eGFP", "value": "Kcat = 0.33"}, {"measurement": "Kcat, fold difference against yUlp1", "setting": "6xHis-hSUMO-3-eGFP", "value": "about 12-fold difference in Kcat"}, {"measurement": "Km", "setting": "6xHis-hSUMO-3-eGFP", "value": "Km = 2.41 mM"}, {"measurement": "Percent cleavage, enzyme:substrate 1:100", "setting": "6xHis-hSUMO-3-eGFP", "value": 99.4, "unit": "%"}, {"measurement": "Percent cleavage, enzyme:substrate 1:1000", "setting": "6xHis-hSUMO-3-eGFP", "value": 95.4, "unit": "%"}, {"measurement": "activity level (grade)", "setting": "6xHis-hSUMO-3-eGFP", "value": "+++"}, {"measurement": "cleavage, 2-fold enzyme dilution series, SDS-PAGE; fold against yUlp1", "setting": "6xHis-hSUMO-3-eGFP", "value": "hSENP2 was able to cleave hSUMO-3-eGFP at least 4-fold better than an identical amount of yUlp1"}, {"measurement": "cleavage, time course, SDS-PAGE", "setting": "6xHis-hSUMO-3-eGFP", "value": "providing nearly complete cleavage within 2 hrs."}, {"measurement": "Kcat", "setting": "6xHis-ySmt3-eGFP", "value": "Kcat = 0.75"}, {"measurement": "Kcat, fold difference against yUlp1", "setting": "6xHis-ySmt3-eGFP", "value": "about 2-fold difference in Kcat"}, {"measurement": "Km", "setting": "6xHis-ySmt3-eGFP", "value": "Km = 2.72 mM"}, {"measurement": "activity level (grade)", "setting": "6xHis-ySmt3-eGFP", "value": "+++++"}, {"measurement": "cleavage, 2-fold enzyme dilution series, SDS-PAGE; fold against yUlp1", "setting": "6xHis-ySmt3-eGFP", "value": "hSENP2 was able to cleave hSUMO-1 and ySmt3 fusions somewhat more effectively (about 2-fold) than yUlp1"}, {"measurement": "cleavage, time course, SDS-PAGE", "setting": "6xHis-ySmt3-eGFP", "value": "both enzymes cleaving hSUMO-1-eGFP poorly and ySmt3-eGFP well"}]}]}
